Source: article PMC4216083

Target: Toll-like receptor 4 (human (endogenous in monocyte-derived DCs)) (UniProt O00206)
Sequence of UniProt O00206 (O00206 24-839): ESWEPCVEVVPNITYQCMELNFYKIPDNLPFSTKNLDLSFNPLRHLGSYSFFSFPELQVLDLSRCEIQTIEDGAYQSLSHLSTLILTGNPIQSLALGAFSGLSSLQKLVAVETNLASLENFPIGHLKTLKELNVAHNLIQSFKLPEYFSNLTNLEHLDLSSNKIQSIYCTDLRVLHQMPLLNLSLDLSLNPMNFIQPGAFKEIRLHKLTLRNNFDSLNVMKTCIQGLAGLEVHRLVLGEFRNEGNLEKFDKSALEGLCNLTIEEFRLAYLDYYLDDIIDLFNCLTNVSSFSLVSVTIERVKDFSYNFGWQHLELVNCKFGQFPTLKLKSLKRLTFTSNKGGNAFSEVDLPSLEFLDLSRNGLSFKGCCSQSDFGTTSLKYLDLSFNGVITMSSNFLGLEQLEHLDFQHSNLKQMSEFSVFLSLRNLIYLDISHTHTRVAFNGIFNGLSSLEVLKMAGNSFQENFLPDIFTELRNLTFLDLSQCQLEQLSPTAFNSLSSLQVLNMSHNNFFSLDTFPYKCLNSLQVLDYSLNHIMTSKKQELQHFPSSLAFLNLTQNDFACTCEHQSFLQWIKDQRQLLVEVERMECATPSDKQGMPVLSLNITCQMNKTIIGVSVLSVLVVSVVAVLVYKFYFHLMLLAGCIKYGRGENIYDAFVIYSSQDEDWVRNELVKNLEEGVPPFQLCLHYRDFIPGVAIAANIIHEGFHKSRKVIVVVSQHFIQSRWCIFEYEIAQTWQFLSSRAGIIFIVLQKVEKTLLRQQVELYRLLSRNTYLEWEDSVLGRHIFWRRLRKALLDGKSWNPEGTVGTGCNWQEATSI

Enterovirus 71 virus-like particles (complex)
decrease of EV71 VLP (10 µg/mL)-induced IL-10 production by human DCs after pre-incubation with anti-TLR4 mAb (HTA125, 20 µg/mL), ELISA: 41%
decrease of EV71 VLP (10 µg/mL)-induced IL-12 p40 production by human DCs after pre-incubation with anti-TLR4 mAb (HTA125, 20 µg/mL), ELISA: 48%
decrease of EV71 VLP (10 µg/mL)-induced IL-12 p70 production by human DCs after pre-incubation with anti-TLR4 mAb (HTA125, 20 µg/mL), ELISA: 68%
